The values that follow come from patent US20100316642A1, “COMPLEXES OF GRP94 WITH HUMAN IMMUNOGLOBULIN G” (priority 2007, published 2010).

Test [1] deals with HSP90 and HSP70 expression in HUVECs. The experiment in a line: Expression of HSP90, HSP70 and IgG in HUVEC lysates and conditioned media (SDS-PAGE, Western blotting). The test is classed as cell-based, human. As to the method: 2. Effects on the expression of HSP70 and HSP90 in HUVECs: hereafter are described in detail the method and results shown in FIG. 3(A) referred to experiments performed after 20-h incubation of cells in the presence of Grp94 (10 ng/ml), both alone and with IgG, with and without the inhibitor U0126 (10 μM, final concentration). Cells were detached from wells and treated with lysis buffer (50 mM Tris-HCl, pH 8.9, 5 mM EDTA, 380 mM glycine, 2% SDS, 7 mM β-mercaptoethanol). Whole cell lysates were analyzed in SDS-PAGE (10% polyacrylamide gel) followed by Western blotting with anti-HSP90, anti-HSP70 and anti-human IgG Abs. The same quantity of proteins (determined by means of densitometric analysis made on common bands in any lysates) was loaded in each well in SDS-PAGE. Arrows on left mark bands in the lanes that are also shared by nearby lanes on right. […] It is worth noting that band positive for IgG appear at the same masses at which also focuses HSP70. In the presence of the inhibitor, the HSP90 expression is blocked, whereas that of both HSP70 and IgG is still evident in cells after treatment, especially in bands at higher molecular masses. Western blotting for each type of protein is representative of at least three other experiments made on the same samples on different occasions.
The analysis made on cell lysates was also conducted on conditioned media (collected from the same cell cultures on which lysates were obtained, as reported above). Media were collected from duplicate wells, centrifuged for removing cell debris, extensively dialyzed, lyophilized and submitted to electrophoresis analysis followed by Western blotting with anti-HSP90, anti-HSP70 and anti-human IgG Abs (as above, for cell lysates). […] In particular, it was observed that the secreted species of HSP90, HSP70 and IgG were only those induced by treatments with Grp94, especially in complexes with IgG.

Test [2] deals with HUVECs. The experiment in a line: Microscopic evaluation of morphogenic (angiogenic) transformation of HUVECs. The test is classed as cell-based, human.
The subject of test [3] is human umbilical vein endothelial cells (HUVECs). The test is described as follows: Cell growth stimulation of HUVECs (cell count in hemocytometer). Conditions: U0126 10 μM alone, no Grp94, control without inhibitor (DMSO 0.1%) 98.01±5.4×10^3. The test is classed as cell-based.
Description: Cells were grown in endothelial basal medium supplemented with fetal bovine serum (FBS) at 10%, and after a starving period of 8-10 h in absence of FBS, fresh serum-free medium was added (2 ml) together with Grp94 (at the final concentration of 1 and 10 ng/ml) both alone and with IgG (at the molar ratio of 1:1). After an incubation period of 20 h, the medium was collected and cells detached from duplicate wells and counted in a hemocytometer. Cell viability was evaluated with the trypan blue dye exclusion method; trypan blue only enters cells with an altered, but not intact membrane permeability.
Histograms in FIG. 2(B) represent the number of cells grown with Grp94 (10 ng/ml), both alone and in the presence of IgG, with the addition of the inhibitor U0126 (10 μM, final concentration). […] The inhibitor was added to cell cultures 30 min before the addition of Grp94, both alone and with IgG. […] Asterisks on bars mark statistically significant (*, p<0.05) and highly significant (**, p<0.001) differences with respect to control values (empty bars).
In test [4] the test system is HUVECs. The test is described as follows: Confocal microscopy of HSP90/HSP70 fluorescence and cytoskeleton changes in HUVECs. It counts as cell-based, human. Conditions: Grp94 10 ng/ml, serum-free medium. As to the method: Cells were cultured in serum-free medium both without any treatment (control, panels a) and with the addition of both Grp94 alone (10 ng/ml) (panels b) and Grp94 in complexes with IgG (panels c), as specified above. In FIG. 4(A) is shown the fluorescence (evidenced with confocal microscopy) due to anti-HSP90 Abs reacting with HSP90 in both control and treated HUVECs (panels a, b and c on left). Intensity of the fluorescence is increased in cells treated with Grp94, especially when present in complexes with IgG. […] Of interest is the co-location of HSP90 with actin, mostly evident in podosomes, underlined by the pale blue fluorescence due to merging of the green and blue fluorescence of HSP90 and actin, respectively (panels on right). In FIG. 4(B) is shown the fluorescence due to HSP70 following the addition to cell cultures of anti-HSP70 Abs, similarly to what reported for anti-HSP90 Abs. […] Arrow heads in both (A) and (B) mark some of the most significant structural changes in the cell cytoskeleton (inserts in panels on right).

The test system of test [5] is human peripheral blood mononuclear cells (PBMCs). The experiment in a line: Growth stimulation of PBMCs (cell count after 2-week culture). It counts as cell-based. Conditions: 2-week incubation, no FBS, control 10% FBS. As to the method: 4. Effects of stimulation of PBMC: PBMC were obtained from blood using the method of the Ficoll-Paque gradient. A sample of about 25 ml of buffy-coat (concentrated sample of red blood cells, white blood cells and platelets) was obtained after centrifugation of 250 ml of blood. The buffy-coat, containing about 300-600 million of PBMCs (1 million/ml of blood sample), was put in a 50-ml Falcon test-tube with the addition of a volume of RPMI (Roswell Park Memorial Institute) medium equal to half of the buffy-coat volume. The first step of PBMC separation included the preparation of the Ficoll solution in aliquots kept in the dark at +4° C. Five ml of buffy-coat were dropped on 4 ml of Ficoll solution put in Falcon test-tube (14-ml capacity). After centrifugation at 600×g for 30 min in swinging buket rotor, the white disk of PBMCs stratified between the upper […] (red blood cells instead precipitate to the bottom), and was thus recovered with a Pasteur pipette. The fractions of PBMCs were mixed together in a Falcon test-tube (50-ml capacity) and fresh RPMI medium added up to the volume of 50 ml. After centrifugation at 600×g for 15 min, the supernatant was discarded and the pellet washed twice by adding the medium up to the volume of 50 ml, each washing being followed by centrifugation at 300×g for 10 min. After the last centrifugation, the pellet was re-suspended with RPMI medium up to 50 ml of volume.
The count of PBMCs was made on a diluted solution of PBMCs, mixing 50 μl of the starting solution in 250 μl (final volume) of Turk dye solution (in acetic acid). The cell count was made in a common cell-counting chamber.
In experiments aimed at measuring IgG concentrations in the medium, PBMCs are seeded at the concentration of 2×10^6 cells/ml (1 ml/well) in a 24- or 48-well flat-bottomed plate (wells of 2 and 1 ml, respectively) incubated at 37° C., in a humidified 95% air, 5% CO2 atmosphere for 2 weeks. […]

The test system of another test is human IgG. The test is described as follows: Dot-blot analysis of Grp94 binding to human IgG. Conditions: human IgG 4 μg/ml, 8 h room temperature. As to the method:
In dot-blot experiments, strips of PVDF membrane were rinsed first in methanol (1 min) and then in de-ionized water (1 min) and let partially dry (3 min). Dots were made with 10 μl of Grp94 (2 μg). Grp94 solution (in bi-distilled water) was used as such (without any treatment) or after boiling for 2 min. Dots with each of the Grp94 solutions (both untreated and boiled) were made in duplicate on membrane strips that were incubated in both absence (control, in TBS only) and presence of human IgG (4 μg/ml) for 8 h at room temperature. Membrane strips were then incubated overnight with a blocking solution of BSA (1%) and Tween (0.2%), followed by washings with TBS (for 1 h) and a further incubation with primary sheep anti-human IgG Abs (2.5 μg/ml). After repeated washings with TBS (for 1 h), membrane strips were then immersed in the solution of secondary Abs (donkey anti-sheep IgG Abs) for 1 h and probed with the detection solution. Control strips with dots of Grp94 incubated with TBS alone were probed with both primary and secondary Abs, and with secondary Abs alone.

Another test has as its system PBMC. The experiment in a line: IgG production from PBMC (anti-human Ig-I125 radioimmunoassay of supernatants). The test is classed as cell-based. Conditions: Grp94 10 ng/ml (maximum of stimulation), 2-week incubation at 37° C. As to the method: In experiments aimed at measuring IgG concentrations in the medium, PBMCs are seeded at the concentration of 2×10^6 cells/ml (1 ml/well) in a 24- or 48-well flat-bottomed plate (wells of 2 and 1 ml, respectively) incubated at 37° C., in a humidified 95% air, 5% CO2 atmosphere for 2 weeks. Controls included triplicate wells containing medium only (or the diluent in which substances were dissolved, where appropriate), puromicine (100 μg/ml, final concentration, useful for detecting background Abs, i.e., Abs already present in circulation non specifically bound to blood cells), and a standard mitogen (pockweed mitogen, PWM) diluted 1:50 (v:v). Treatment included the addition of Grp94 (at final concentrations of 1, 10 and 100 ng/ml), both alone and in complexes with IgG, and IgG alone (at the final concentration necessary to give a 1:1 molar ratio with Grp94), after each solution was incubated at 37° C. for 1 h.
5. IgG production from PBMC: on a 96-well (200 μl each) flat-bottomed Optiplate (Packard) were laid down 50 μl of anti-human IgG Abs (5 μg/ml in NaHCO3/Na2CO3 buffer, ph 9.6) that were allowed to dry out overnight. Afterwards, 200 μl of PBS with 3% BSA and 0.02% NaN3 were added to saturate aspecific binding sites in Abs. […] The plate was then dried after additional washings and radioactivity measured after the addition of 30 μl of Microscint 20 in each well. […]

`N#CC(=C(/N)Sc1ccccc1N)/C(C#N)=C(\N)Sc1ccccc1N` [U0126, reference compound]: the “HSP90 expression in treated HUVECs in the presence of the inhibitor” value in test [1] (U0126 10 μM added to cells treated with Grp94 10 ng/ml alone or with IgG) was “blocked”. The “morphology of HUVECs with inhibitor on its own” value in the test on HUVECs [2] (U0126 10 μM alone) is given as “pre-angiogenic transformation”. For the same molecule, in test [3], the “number of control cells in presence of the inhibitor” value was 80.38±4.02×10^3.

B1: Grp94: Glucose-regulated protein 94, native, purified from the microsomal fraction of rat hepatocytes (protein, UniProt Q66HD0 22-804, looked up)
Endoplasmin: DDEVDVDGTVEEDLGKSREGSRTDDEVVQREEEAIQLDGLNASQIRELREKSEKFAFQAEVNRMMKLIINSLYKNKEIFLRELISNASDALDKIRLISLTDENALAGNEELTVKIKCDREKNLLHVTDTGVGMTREELVKNLGTIAKSGTSEFLNKMTEAQEDGQSTSELIGQFGVGFYSAFLVADKVIVTSKHNNDTQHIWESDSNEFSVIADPRGNTLGRGTTITLVLKEEASDYLELDTIKNLVRKYSQFINFPIYVWSSKTETVEEPLEEDETAQEEKEEADDEAAVEEEEEEKKPKTKKVEKTVWDWELMNDIKPIWQRPSKEVEEDEYKAFYKSFSKESDDPMAYIHFTAEGEVTFKSILFVPTSAPRGLFDEYGSKKSDYIKLYVRRVFITDDFHDMMPKYLNFVKGVVDSDDLPLNVSRETLQQHKLLKVIRKKLVRKTLDMIKKIADEKYNDTFWKEFGTNIKLGVIEDHSNRTRLAKLLRFQSSHHSTDITSLDQYVERMKEKQDKIYFMAGSSRKEAESSPFVERLLKKGYEVIYLTEPVDEYCIQALPEFDGKRFQNVAKEGVKFDESEKSKESREATEKEFEPLLNWMKDKALKDKIEKAVVSQRLTESPCALVASQYGWSGNMERIMKAQAYQTGKDISTNYYASQKKTFEINPRHPLIRDMLRRVKEDEDDKTVMDLAVVLFETATLRSGYLLPDTKAYGDRIERMLRLSLNIDPEAQVEEEPEEEPEDTTEDTTDDSEQDEEETDAGAEEEEEEQETEKEPTEKDEL
Consider B1, for which the “intensity of HSP90 fluorescence (confocal microscopy)” value in the test on HUVECs [4] (especially in complexes with IgG) is on record as “increased”. Further, the “fluorescence of HSP70 (confocal microscopy)” value with HUVECs [4] (versus control) is “increased”. Besides, the “increase in PBMC number with respect to the control value” came out at 5% in test [5] (Grp94 1 ng/ml), 63% in test [5] (Grp94 10 ng/ml) and 47% in test [5] (Grp94 100 ng/ml). For the same molecule, the entries for the “binding to IgG (dot-blot)” value in the test with human IgG (Grp94 after boiling for 2 min) and in the test with human IgG (untreated Grp94 2 μg dots) were “did not bind IgG any longer” and “stable binding”, respectively. The “HSP90, HSP70 and IgG in conditioned media (Western blotting)” value in test [1] (HUVEC media after 20-h treatment, Grp94 10 ng/ml, no positivity in control media, mostly in complexes with IgG) is reported as “positive immune reaction”. Besides, in test [1] (HUVECs, Grp94 10 ng/ml, 20-h incubation, constitutive form in any lysates), the “HSP70 in whole cell lysates (Western blotting)” value was “additional bands referred to inducible species of HSP70”. Also, the “HSP90 in whole cell lysates (Western blotting)” value in test [1] (HUVECs, Grp94 10 ng/ml, 20-h incubation, not present in control lysates) is reported as “positivity”. Moreover, the “IgG production (radioactivity)” value with PBMC is given as 316 cpm. For the same molecule, in the test with HUVECs [2] (Grp94 10 ng/ml, alone or with IgG 1:1, not changed significantly by U0126, versus cobblestone morphology of control), the “morphogenic transformation of HUVECs” value is on record as “angiogenic modifications”.
